According to a protein production outcome set (Wang et al. 2014):

Experiment: label from the status in PepcDB records

Sequence | protein production
MRQKETTATTRFSLLPGSITRFFLLLIIVLLVTMGVMVQSAVNAWLKDKSYQIVDITHAIQKRVDTWRYVTWQIYDNIAATTSPSSGEGLQETRLKQDVYYLEKPRRKTEALIFGSHDNSTLEMTQRMSTYLDTLWGAENVPWSMYYLNGQDNSLVLISTLPLKDLTSGFKESTVSDIVDSRRAEMLQQANALDERESFSNMRRLAWQNGHYFTLRTTFNQPGHLATVVAFDLPINDLIPPGMPLDSFRLEPDATATGNNENEKEGTDSVSIHFNSTKIEISSALNSTDMRLVWQVPYGTLLLDTLQNILLPLLLNIGLLALALFGYTTFRHFSSRSTESVPSTAVNNELRILRAINEEIVSLLPLGLLVHDQESNRTVISNKIADHLLPHLNLQNITTMAEQHQGIIQATINNELYEIRMFRSQVAPRTQIFIIRDQDREVLVNKKLKQAQRLYEKNQQGRMTFMKNIGDALKEPAQSLAESAAKLNAPEGKQLANQADVLVRLVDEIQLANMLADDSWKSETELFSVQDLIDEVVPSVLPAIKRKGLQLLINNHLKAHDMRRGDRDALRRILLLLMQYAVTSTQLGKITLEVDQDESSEDRLTFRILDTGEGVSIHEMDNLHFPFINQTQNDRYGKADPLAFWLSDQLARKLGGHLNIKTRDGLGTRYSVHIKMLAADPEVEEEEERLLDDVCVMVDVTSAEIRNIVTRQLENWGATCITPDERLISQDYDIFLTDNPSNLTASGLLLSDDESGVREIGPGQLCVNFNMSNAMQEAVLQLIEVQLAQEEVTESPLGGDENAQLHASGYYALFVDTVPDDVKRLYTEAATSDFAALAQTAHRLKGVFAMLNLVPGKQLCETLEHLIREKDVPGIEKYISDIDSYVKSLL | failed
MDSSLANINQIDVPSKYLRLLRPVAWLCFLLPYAVGFGFGITPNASLQHAVLGLLSFAFWMAFSFTINALYDRDVDRLHDGRVKDLNLSMQPLVTGEISVREAWLYCIAFLALSLATAAAINEKFFLAMLGANIIGYVYSAPPRFKAWPVMDVICNALAAVLAFYAGLSIGGAEVPIAIYPAAFFLAATFYIPTAVSDYEFDKKAGLKNTPVFFGPERALKSLYPLSAITVILWAYVFLMAERIEIKVISPLIIAYTLIYTFIINSRWDGEKLNVSPNLILTPFGIISALFIAYGFAVISVLG | failed
ADIVNLQGVTGGNTYSVPAVTMDLLSGKDVAVEEFPRKLLTFKEKLGEGQFGEVHLCEVEGMEKFKDKDFALDVSANQPVLVAVKMLRADANKNARNDFLKEIKIMSRLKDPNIIHLLAVCITDDPLCMITEYMENGDLNQFLSRHEPPNSSSSDVRTVSYTNLKFMATQIASGMKYLSSLNFVHRDLATRNCLVGKNYTIKIADFGMSRNLYSGDYYRIQGRAVLPIRWMSWESILLGKFTTASDVWAFGVTLWETFTFCQEQPYSQLSDEQVIENTGEFFRDQGRQTYLPQPAICPDSVYKLMLSCWRRDTKNRPSFQEIHLLLLQQGDE | failed
MKEKVVIITGGSSGMGKGMATRFAKEGARVVITGRTKEKLEEAKLEIEQFPGQILTVQMDVRNTDDIQKMIEQIDEKFGRIDILINNAAGNFICPAEDLSVNGWNSVINIVLNGTFYCSQAIGKYWIEKGIKGNIINMVATYAWDAGPGVIHSAAAKAGVLAMTKTLAVEWGRKYGIRVNAIAPGPIERTGGADKLWISEEMAKRTIQSVPLGRLGTPEEIAGLAYYLCSDEAAYINGTCMTMDGGQHLHQYPF | not failed
MVGEEDSERAQSSKMEIERESNLGSASVLMQSKVISVSNFFSIHRFHYPREKIVSFLFPSVFSRIMASYGEEREIQKNYWKEHSVGLSVEAMMLDSKASDLDKEERPEILAFLPPIEGTTVLEFGAGIGRFTTELAQKAGQVIAVDFIESVIKKNENINGHYKNVKFLCADVTSPNMNFPNESMDLIFSNWLLMYLSDQEVEDLAKKMLQWTKVGGYIFFRESCFHQSGDNKRKYNPTHYREPKFYTKLFKECHMNDEDGNSYELSLVSCKCIGAYVRNKKNQNQICWLWQKVSSDNDRGFQRFLDNVQYKSSGILRYERVFGEGFVSTGGLETTKEFVDMLDLKPGQKVLDVGCGIGGGDFYMAENFDVDVVGIDLSVNMISFALEHAIGLKCSVEFEVADCTKKEYPDNTFDVIYSRDTILHIQDKPALFRRFYKWLKPGGKVLITDYCRSPKTPSPDFAIYIKKRGYDLHDVQAYGQMLRDAGFEEVIAEDRTDQFMKVLKRELDAVEKEKEEFISDFSKEDYEDIIGGWKSKLLRSSSGEQKWGLFIAKRN | failed
FDFKAGEEVLARWTDCRYYPAKIEAINKEGTFTVQFYDGVIRCLKRMHIKAMPEDAKGQDWIALVKA | not failed
ISSDEALKLIKEQPQLFDEYHDGFRSQVQAWPENPVDVFVDQIRYRCMKPVNAPGGLPGLKDSKEIVIADMGCGEAQLALEINNFFKNYNKKAKKYLKRRHKVHSFDLKKANERITVADIRNVPLPDESCTIVVFCLALMGTNFLDFIKEAYRILAPRGELWIAEIKSRFSDGKGNEFVDALKLMGFFHKKTFDENKMFTRFEFFKPPAEIIEERRQ | failed
MAEKTYSGFVAIVGKPNVGKSTLLNNLLGVKVAPISPRPQTTRKRLRGILTEGRRQIVFVDTPGLHKPMDALGEFMDQEVYEALADVNAVVWVVDLRHPPTPEDELVARALKPLVGKVPILLVGNKLDAAKYPEEAMKAYHELLPEAEPRMLSALDERQVAELKADLLALMPEGPFFYPEDYAKSDQTFGEWVAEILREEAMKRLWHEVPYAVATKVEEVAERENGVLYIKAILYVERPSQKAIVIGEGGRKIKEIGQATRKQLEALLGKKVYLDLEVKVYPDWRKDPEALRELGYRSSVG | not failed
MKIVIIGGFLGGGKTTVLNHLLAESLKESLKPAVIMNEFGKMSVDGALVSEDIPLSELTEGCICCAMKADVSEQLHQLYLKEQPDIVFIECSGIAEPVSVLDACLTPILAPFTTITHMIGVIDASMYKHIKSFPKDIQGLFYEQLAYCSVLFVNKIDSADVETTSKLLKDLEVINPEADIQVGMHGSVTLPISVRQMTATSDNKHESLHKTINHQFVQSPVTCTKAEFIKRLACLPSHIYRLKGFMTFEDTTHTYLIQFTQGQYELTPVAFSKKVPEYLVLIGKGISKEDYQCLEQLEHHHHHH | failed
MKPIHVGLLGLGTVGGGTLTVLRRNAEEITRRAGREIRVVRAAVRNLDKAEALAGGLPLTTNPFDVVDDPEIDIVVELIGGLEPARELVMQAIANGKHVVTANKHLVAKYGNEIFAAAQAKGVMVTFEAAVAGGIPIIKALREGLTANRIEWLAGIINGTSNFILSEMRDKGAAFDDVLKEAQRLGYAEADPTFDIEGIDAAHKLTILSAIAFGIPMQFERAYTEGISQLTREDVRYAEELGYRIKLLGIARRAENGIELRVHPTLIPERRLIANVDGAMNAVLVKGDAVGPTLYYGAGAGSEPTASAVVADLVDVTRLHTADPHHRVPHLAFQPDQLADTPILPMEAVRTAYYLRLRAFDRPGVLADITRILADSSISIDAMVQKEPAEGEEQVDIILLTHVTLEKNVNAAIAKIEALDAVAGKVMRIRLEDLGAK | not failed
MIKLLLLDVDGTLTDGSLYFDENFHEIKAFNVKDGLGMTLWQKLGKKIAIITGRTSIMVKKRMESLGVQFVFMGVENKNTVIERLKKDLQLSAQEIACVGDDYNDLGMFKACALSFAPFDAHPLLKSKAYKVLQNSGGKGAVREAIDYLLTLEGLQDEALKLYL | failed
MRVEIWSDIACPWCYVGKARFEKALAAFPHRDGVEVVHRSFELDPGRAKDDVQPVLTMLTAKYGMSQEQAQAGEDNLGAQAAAEGLAYRTRDRDHGSTFDLHRLLHLAKERGRHEALLDAFYRGNFADERSVFNDDERLVELAVGAGLDAEEVRAVLADPAAYADEVRADEREAAQLGATGVPFFVLDRAYGVSGAQPAEVFTQALTQAWGERTPLKLIDDGGAEACGPDGCAVPGH | not failed
MAHFSARLKLLSSNDGLSFGVDSRDQFRQSLYMAGGGSPLVPIRMSRLKFCARIFSSYSFPYKRKKIRDLDNTEKNLDIDEDNDEWDFDGDDDGLETDDHLSCFRGLVLDISYRPVNVVCWKRAICLEYMDKADVLEYYDQTVSSPTGSFYIPAVLRVPHLLQVVKRRRVKNSLSRKNILLRDDYTCQYCSSRENLTIDHVMPVSRGGEWTWQNLVAACSRCNSRKGQKTADEAHMKLLKVPKEPKDYDIVAIPLTNAAIRMLRSNKGMPEEWRQYLAKPLSET | failed
DRTAILGGTFTPIHNGHRALLHKAFQTASHDGSGDGHVIVGLTSPELATETRSDPTHVKQLGAYDDRRSALASELDQLGEPYTATYEIVRLDDTQGPAATRADVDALVASPEAKAQRRAYELNQQRRESGLHPLEIHTPPFVVAEDGTRISSTRIRNGEIDVHGRLLD | failed
MPFSISGRKGSEMMAKLDELKQKLTAKQIQAAYLLVENELMESNNEEKRTQDEMANELGINRTTLWEWRTKNQDFIAFKSEVADSFLAEKREQVYSKLMQLILGPQPSVKAMQLYMQRFGLLTDKKVIEGDLGNATRTNAEIEEQLQKLKKLTGE | not failed
MTLSFFRPRARKVTAAVLLMTWLAPVSPLALAQPASVPAAPAGAAAAEQVQSNLNRSVQIGRQSPYLQKDATIIDAPTYELPDMGDPSTAALSPEMERRLGDRVMRQIRRDPDYVPDPLLSDYLNDIGYRLIEAARRQHVAGSTSASSFELFAVRDPGINAFALPGGYIGVNTGTLVATESESELASVLGHEIGHVLQRHIARGIDKSGESMWIALASILLAGLAATKSGDAAQALAVGGQAAAVSNQLAFSRGAEREADRVGFTLLTGAGYNPDGMPDFFRRLQRVSSIADTGAVPGYARTHPLTGERIADMEDRARGLPHPRQPQRPAFGFAKARARVLQETSTSAYLDVRNAMRSQLASAPDAPAEKRAALWYGIAVAEQLAGQLDPAEQALLEARRLYGNIPGLTSGSPSLDVTAIELARARNRVPEALTMARAALAAYPLSRAVGITYAQTLLAAGRAGDAIPYLQDKAREDTAQPIWWDMLARAYADQGKRVEQHRALAEKYARDGAWGAAVEQLKLARDAGDADFYTLSEVDARLHQMERQYREEKQEEKALPK | failed
MSSILSDTAPRFLADYRPADFTINTVNLTIHLDDTCSQVVSELTIERKGDVQQALQLNGEHLTLVSLVLDNQALSKDQYQINETLLIIPASSLPDRSHFTLIITTEINPQENTALEGLFKSGDAFCTQCEAEGFRRISYYLDRPDVMATFTTKVIADKNLYPYLLSNGNKVASGELSDNKHFVTWHDPFPKPCYLFALVAGNFDLLEDNFTTASGREVALEIFVDEGNLAKAEHAMTSLQKSMAWDEETFGLEYDLDIYMIVAVDFFNMGAMENKGLNVFNSKYVLADSHCATDSDYFNIEAVIAHEYFHNWTGNRVTCRDWFQLSLKEGLTVFRDQQFSAQMHSSAVTRIQNVRVLRSQQFAEDAGPMAHPIRPEKVLEMNNFYTLTVYEKGSEVIRMLHTLIGVDKFRQGMDLYFSRFDGMAVTCDDFINAMSDASGKDLAQFKLWYSQSGTPVIKAQEMFDSQTNIYTLTLLQQSPITKNQQNPQALHIPIKVELISDNNNEASQSELLELTQTEQSWQFSGFTSKPTLAMLADFSAPVKLIFDQNNTSLLTIMQQADNSFCRWDAGQKLLMSYLHQLTFDIDYTIPNELINAINDMLNSGGDRAFIAEQLSLPSFDEAASLMVDIDPIALTNAITTLATFIARGTQQQLLVSYKACQHEDLKDNAVANRALKNVCLSYLSLLPEYQYLVTQQYQQATNNDDILKENMTDSLAALTCSSKNNLDDLNEQLEHFENKWQQTTLVMDKWFALNASVVSEDVFTQLANLLEHPQFSLKNPNRARSLIGAFAMNNPKYFHCPTGRGYQFLADQIAKLNEINPQVASRLITPLIQFKSFAPAHQKLMKAELVKLQALTNLSNDLKEKLDAALND | failed
MPFAIGQRWLSESENALGLGVITALDQRTVTIYFPAADETRIYAMAQAPLSRIVFSKGETLSHQAGWQGEILDVQNMNGLLFYLVKNPQDEDVIVQERDISPIISFSQAKDRLFSAQI | failed
TEQGLQKVLQRLVQTMQRDALVRQTTNQLRESLQVDRVVLYYFYWQWHGQVTFEALSSEEFSILGSTGADECFNDEYAALYLAGRTKAIADIESEPITTCHRDFLRTLQVRANLVVPVLVPKGLWGLLVAHHCQGTHDWKESDIELMQAGAKTLA | failed
